{
  "source": "paper PMC4191604",
  "about": "(Journal of Medicinal Chemistry, 2014)",
  "test_in_all_cases": "SPR",
  "key": {"[1]": {"molecular_target": "T1, GBP1 GTPase (human GBP1, recombinant wild type) (human, UniProt P32455 1-592)", "T1 sequence (looked up)": "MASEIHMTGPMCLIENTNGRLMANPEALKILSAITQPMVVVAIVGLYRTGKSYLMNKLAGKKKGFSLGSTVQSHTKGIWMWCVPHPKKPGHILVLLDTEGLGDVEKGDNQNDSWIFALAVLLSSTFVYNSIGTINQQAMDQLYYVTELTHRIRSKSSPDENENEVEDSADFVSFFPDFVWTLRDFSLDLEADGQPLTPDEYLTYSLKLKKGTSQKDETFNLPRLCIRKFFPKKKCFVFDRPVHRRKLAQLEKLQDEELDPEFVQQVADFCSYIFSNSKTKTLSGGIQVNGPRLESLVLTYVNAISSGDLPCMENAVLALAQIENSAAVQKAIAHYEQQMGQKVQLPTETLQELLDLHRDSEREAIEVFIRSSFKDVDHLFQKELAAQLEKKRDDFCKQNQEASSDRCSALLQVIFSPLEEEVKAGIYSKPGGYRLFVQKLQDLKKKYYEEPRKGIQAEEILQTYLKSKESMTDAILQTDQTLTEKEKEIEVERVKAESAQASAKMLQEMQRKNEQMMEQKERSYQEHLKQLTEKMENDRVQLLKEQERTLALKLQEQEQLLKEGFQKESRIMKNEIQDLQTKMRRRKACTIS"}, "GBP1 mutant R227E/K228E": {"molecular_target": "T2, GBP1 mutant R227E/K228E (human, UniProt P32455 1-592, R227E | K228E)", "T2 sequence (looked up)": "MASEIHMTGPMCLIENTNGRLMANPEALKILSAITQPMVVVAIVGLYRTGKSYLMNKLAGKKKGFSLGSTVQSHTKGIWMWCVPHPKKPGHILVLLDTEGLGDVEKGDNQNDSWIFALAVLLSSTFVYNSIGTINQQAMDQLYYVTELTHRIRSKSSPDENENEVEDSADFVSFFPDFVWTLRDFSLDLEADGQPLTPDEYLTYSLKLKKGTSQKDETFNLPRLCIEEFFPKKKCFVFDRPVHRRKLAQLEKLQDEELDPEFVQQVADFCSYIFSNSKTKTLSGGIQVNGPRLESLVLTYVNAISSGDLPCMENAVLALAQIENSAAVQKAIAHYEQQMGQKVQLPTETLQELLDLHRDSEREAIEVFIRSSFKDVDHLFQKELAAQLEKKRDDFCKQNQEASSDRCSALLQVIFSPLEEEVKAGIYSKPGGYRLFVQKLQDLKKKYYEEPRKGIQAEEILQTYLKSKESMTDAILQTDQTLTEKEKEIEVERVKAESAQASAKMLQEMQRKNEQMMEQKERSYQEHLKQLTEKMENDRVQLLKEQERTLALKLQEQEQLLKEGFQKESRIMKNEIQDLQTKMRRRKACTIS"}, "GBP1 mutant K51A": {"molecular_target": "T3, GBP1 mutant K51A (human, UniProt P32455 1-592, K51A)", "T3 sequence (looked up)": "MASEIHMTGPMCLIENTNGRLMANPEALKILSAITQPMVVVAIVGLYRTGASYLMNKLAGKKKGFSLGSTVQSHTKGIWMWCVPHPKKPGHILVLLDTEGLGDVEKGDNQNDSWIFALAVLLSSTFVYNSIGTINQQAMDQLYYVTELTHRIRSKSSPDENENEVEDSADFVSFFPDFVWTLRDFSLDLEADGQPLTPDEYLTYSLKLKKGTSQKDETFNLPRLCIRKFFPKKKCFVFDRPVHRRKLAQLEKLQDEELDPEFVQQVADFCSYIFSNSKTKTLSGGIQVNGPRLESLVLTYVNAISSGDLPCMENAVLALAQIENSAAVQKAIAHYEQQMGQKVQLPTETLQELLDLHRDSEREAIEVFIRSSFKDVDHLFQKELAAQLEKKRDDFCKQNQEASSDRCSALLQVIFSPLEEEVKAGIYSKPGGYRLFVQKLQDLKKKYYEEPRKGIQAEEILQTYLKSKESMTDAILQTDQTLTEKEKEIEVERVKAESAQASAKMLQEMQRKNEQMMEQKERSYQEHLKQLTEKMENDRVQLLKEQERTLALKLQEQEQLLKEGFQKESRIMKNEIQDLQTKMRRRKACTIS"}, "GBP1 mutant R227A/K228A": {"molecular_target": "T4, GBP1 mutant R227A/K228A (human, UniProt P32455 1-592, R227A | K228A)", "T4 sequence (looked up)": "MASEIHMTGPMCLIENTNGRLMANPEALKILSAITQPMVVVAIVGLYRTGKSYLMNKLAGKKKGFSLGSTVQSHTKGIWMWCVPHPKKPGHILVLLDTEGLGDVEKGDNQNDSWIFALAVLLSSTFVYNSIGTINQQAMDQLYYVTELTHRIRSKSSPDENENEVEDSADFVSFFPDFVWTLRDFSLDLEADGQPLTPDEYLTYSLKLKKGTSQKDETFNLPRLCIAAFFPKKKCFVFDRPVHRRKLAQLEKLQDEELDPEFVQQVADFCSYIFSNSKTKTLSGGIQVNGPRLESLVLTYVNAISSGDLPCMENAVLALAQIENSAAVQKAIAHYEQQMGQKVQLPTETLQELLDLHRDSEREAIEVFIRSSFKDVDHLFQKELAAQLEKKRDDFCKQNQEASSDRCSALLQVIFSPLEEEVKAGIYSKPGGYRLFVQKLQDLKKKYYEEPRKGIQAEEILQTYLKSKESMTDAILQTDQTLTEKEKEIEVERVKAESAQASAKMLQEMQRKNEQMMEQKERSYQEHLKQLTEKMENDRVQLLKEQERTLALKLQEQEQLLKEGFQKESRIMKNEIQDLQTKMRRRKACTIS"}},
  "data": [
    {"binder": "PIM1 (recombinant) (enzyme) not shown", "values": [
      {"measurement": "Kd", "setting": "[1]", "value": "38 ± 14", "unit": "nM"},
      {"measurement": "Kd", "setting": "GBP1 mutant R227E/K228E", "value": "> 10000", "unit": "nM"},
      {"measurement": "Kd", "setting": "GBP1 mutant K51A", "value": "50 ± 10", "unit": "nM"},
      {"measurement": "Kd", "setting": "GBP1 mutant R227A/K228A", "value": "137 ± 14", "unit": "nM"}
    ]}
  ]
}
